Assay: CHO co-transfection, flow cytometry fusion index
Conditions: glycan lost; control: wild-type ASCT2

Protein | other: SYN1-induced cell-cell fusion
ASCT2 (Alanine, Serine, Cysteine Transporter 2; SLC1A5): N163H (protein) parent chain: MVADPPRDSKGLAAAEPTANGGLALASIEDQGAAAGGYCGSRDQVRRCLRANLLVLLTVVAVVAGVALGLGVSGAGGALALGPERLSAFVFPGELLLRLLRMIILPLVVCSLIGGAASLDPGALGRLGAWALLFFLVTTLLASALGVGLALALQPGAASAAINASVGAAGSAENAPSKEVLDSFLDLARNIFPSNLVSAAFRSYSTTYEERNITGTRVKVPVGQEVEGMNILGLVVFAIVFGVALRKLGPEGELLIRFFNSFNEATMVLVSWIMWYAPVGIMFLVAGKIVEMEDVGLLFARLGKYILCCLLGHAIHGLLVLPLIYFLFTRKNPYRFLWGIVTPLATAFGTSSSSATLPLMMKCVEENNGVAKHISRFILPIGATVNMDGAALFQCVAAVFIAQLSQQSLDFVKIITILVTATASSVGAAGIPAGGVLTLAIILEAVNLPVDHISLILAVDWLVDRSCTVLNVEGDALGAGLLQNYVDRTESRSTEPELIQVKSELPLDPLPVPTEEGNPLLKHYRGPAGDATVASEKESVM | no change
ASCT2 (Alanine, Serine, Cysteine Transporter 2; SLC1A5): N163H/N212H (protein) parent chain: MVADPPRDSKGLAAAEPTANGGLALASIEDQGAAAGGYCGSRDQVRRCLRANLLVLLTVVAVVAGVALGLGVSGAGGALALGPERLSAFVFPGELLLRLLRMIILPLVVCSLIGGAASLDPGALGRLGAWALLFFLVTTLLASALGVGLALALQPGAASAAINASVGAAGSAENAPSKEVLDSFLDLARNIFPSNLVSAAFRSYSTTYEERNITGTRVKVPVGQEVEGMNILGLVVFAIVFGVALRKLGPEGELLIRFFNSFNEATMVLVSWIMWYAPVGIMFLVAGKIVEMEDVGLLFARLGKYILCCLLGHAIHGLLVLPLIYFLFTRKNPYRFLWGIVTPLATAFGTSSSSATLPLMMKCVEENNGVAKHISRFILPIGATVNMDGAALFQCVAAVFIAQLSQQSLDFVKIITILVTATASSVGAAGIPAGGVLTLAIILEAVNLPVDHISLILAVDWLVDRSCTVLNVEGDALGAGLLQNYVDRTESRSTEPELIQVKSELPLDPLPVPTEEGNPLLKHYRGPAGDATVASEKESVM | no change
ASCT2 (Alanine, Serine, Cysteine Transporter 2; SLC1A5): N212H (protein) parent chain: MVADPPRDSKGLAAAEPTANGGLALASIEDQGAAAGGYCGSRDQVRRCLRANLLVLLTVVAVVAGVALGLGVSGAGGALALGPERLSAFVFPGELLLRLLRMIILPLVVCSLIGGAASLDPGALGRLGAWALLFFLVTTLLASALGVGLALALQPGAASAAINASVGAAGSAENAPSKEVLDSFLDLARNIFPSNLVSAAFRSYSTTYEERNITGTRVKVPVGQEVEGMNILGLVVFAIVFGVALRKLGPEGELLIRFFNSFNEATMVLVSWIMWYAPVGIMFLVAGKIVEMEDVGLLFARLGKYILCCLLGHAIHGLLVLPLIYFLFTRKNPYRFLWGIVTPLATAFGTSSSSATLPLMMKCVEENNGVAKHISRFILPIGATVNMDGAALFQCVAAVFIAQLSQQSLDFVKIITILVTATASSVGAAGIPAGGVLTLAIILEAVNLPVDHISLILAVDWLVDRSCTVLNVEGDALGAGLLQNYVDRTESRSTEPELIQVKSELPLDPLPVPTEEGNPLLKHYRGPAGDATVASEKESVM | no change

Source: publication PMC6925194
